# Measured values: patent publication US20250075191A1, “MODIFIED BIOLUMINESCENT ENZYMES” (Light Bio, Inc., priority 2023, published 2025)
# B1: nnLuz_v3: N. nambi luciferase with substitutions T99P, T192S, A199P combined (SEQ ID NO: 2) (protein, listed as Neonothopanus nambi)
# chain: MRINISLSSLFERLSKLSSRSIAITCGVVLASAIAFPIIRRDYQTFLEVGPSYAPQNFRGYIIVCVLSLFRQEQKGLAIYDRLPEKRRWLADLPFREGPRPSITSHIIQRQRTQLVDQEFATRELIDKVIPRVQARHTDKTFLSTSKFEFHAKAIFLLPSIPINDPLNIPSHDTVRRTKREIAHMHDYHDCSLHLALAPQDGKEVLKKGWGQRHPLAGPGVPGPPTEWTFLYAPRNEEEARVVEMIVEASIGYMTNDPAGKIVENAK
# B2: nnH3H_v2: N. nambi hispidin hydroxylase with D37E, V181I, S323M, and M385K (SEQ ID NO: 6) (protein, listed as Neonothopanus nambi)
# chain: MASFENSLSVLIVGAGLGGLAAAIALRRQGHVVKIYESSSFKAELGAGLAVPPNTLRSLQQLGCNTENLNGVDNLCFTAMGYDGSVGMMNNMTDYREAYGTSWIMVHRVDLHNELMRIALDPGGLGPPATLHLNHRVTFCDVDACTVTFTNGTTQSADLIVGADGIRSTIRRFVLEEDVTVPASGIVGFRWLVQADALDPYPELDWIVKKPPLGARLISTPQNPQSGVGLADRRTIIIYACRGGTMVNVLAVHDDERDQNTADWSVPASKDDLFRVFHDYHPRFRRLLELAQDINLWQMRVVPVLKKWVNKRVCLLGDAAHAMLPTLGQGFGMGLEDAVALGTLLPKGTTASQIETRLAVYEQLRKDRAEFVAAESYEEQYVPEKRGLYLRSKELRDRVMGYDIKVESEKVLETLLRSSNSA
# B3: nnLuz_v4 (protein, listed as Neonothopanus nambi)
# chain: MRSTISLSSLLERLSKLSSRSIAITCGVVLASAIAFPIIRRDYQTFLEVGPSYAPQNFRGYITVCVLSLFRQEQKGLAIYDRLPEKRRWLADLPFREGPRPSITSHIIQRQRTQLVDQEFATRELIDKVIPRVQARHTDKTFLSTSKFEFHAKAIFLLPSIPINDPLNIPSHDTVRRTKREIAHMHDYHDCSLHLALAPQDGKEVLKKGWGQRHPLAGPGVPGPPTEWTFLYAPRNEEEARVVEMIVEASIGYMTNDPAGKIVENAKGS
# Key:
# [1] = Luciferase luminescence in E. coli lysates after luciferin addition; assay type: biochemical; conditions: 100 μM luciferin, maximal brightness
# Description: A library of amino acid substitutions was created applying mutagenesis to a gene encoding the luciferase derived from Neonothopanus nambi (SEQ ID NO: 8). pF4Ag shuttle vector (Promega) was used for gene expression in E. coli (T7 promoter-driven expression) and mammalian cells (CMV promoter-driven expression). The pF4Ag vector backbone introduces a C-terminal 3×-FLAG-HiBiT tag. Site-directed mutagenesis was used to substitute consensus amino acids at selected position in the luciferase sequence. Gene expression was performed in the E. coli strain KRX (Promega), which enables rhamnose-inducible expression of T7 RNA polymerase.
# Colonies (in triplicate) were used to inoculate LB broth containing ampicillin ([…]) and cultures grown overnight in 96-well microtiter plates (20 hours, 37° C.). Cultures were diluted into fresh LB containing 0.1% rhamnose and ampicillin and grown for 3 hours at 37° C. 50 μl of the induced culture was lysed for 5 minutes at ambient temperature with a reagent consisting of 25 mM HEPES pH 7.5 and 0.3×PLB (E1941 Promega). 50 μl of lysate was combined with 50 μl luciferin (100 μM) in the lysis buffer and samples were measured for total luminescence using a GloMax®-Multi+luminometer. (Promega).
# [2] = tested on: HEK293 cells; test: Luciferase luminescence by transient expression in HEK293 cells after luciferin addition; assay type: cell-based; conditions: living HEK293 cells, luciferin 740 μM final concentration
# Description: Production of luminescence by nnLuz_v3 was measure in E. coli lysates by the above method, and in mammalian cells (HEK293 cells). The HEK293 cells were transfected using the FugeneHD transfection reagent (Promega) according to the manufacturer's instructions. Cells were grown overnight under CO2 at 37° C. in 96-well white assay plates. For luminescence measurements, media was removed and replaced with 100 μl of CO2 independent media (Life Technologies 18045) containing 10% FBS. 33 μl of luciferin was added to cells (740 μM final concentration). The luminescence was measured using a GloMax-Multi+luminometer (Promega).
# [3] = Enzyme thermostability in cleared E. coli lysates incubated at 22° C.; assay type: biochemical; conditions: then 100 μM luciferin
# Description: To assess the effect on enzyme thermostability by the amino acid substitutions, lysates of transformed E. coli were prepared by sonication and cleared by centrifugation. The cleared lysates were diluted 1:100 into Tris-buffered saline with 0.01% BSA and 0.1% n-dodecyl β-D-maltoside. 100 μl of each diluted lysate were added to a 96-well PCR plate. Samples were incubated at 22° C. and at various time points aliquots were placed on ice. When all of the samples were processed, 50 μl of each was combined with 50 μl of 100 μM luciferin in Tris-buffered saline with 0.01% BSA and 0.1% n-dodecyl β-D-maltoside. Samples were immediately placed in a GloMax®-Multi+luminometer (Promega) to measure bioluminescence.
# [4] = tested on: Pichia pastoris GS115; test: Luminescence imaging of transformed yeast after addition of luciferin, hispidin or caffeic acid; assay type: cell-based
# Description: Integration of plasmids into the genome of Pichia pastoris GS115 was targeted at the GAP promoter locus. Linearized plasmids were used for the transformation of electrically competent yeast cells. Colonies were selected using […] of G418 or 200 mg/ml of hygromycin or 50 mg/ml of zeocin. PCR-based screening of yeast colonies was done by heating up colonies in 10 μl of 20 mM NaOH at 90° C. for 7 min and then using 1 μl of the resulting solution for direct PCR. For luminescence imaging, yeast culture grown on plate was resuspended in 50 μL of 1M sorbitol. 5 μL of the suspension was then added in 3 replicates to YPD agar plates lacking antibiotics. […] Imaging was performed in Fusion Pulse (Vilber, France), with exposure of 0.1 or 5 sec every 3 or 5 min for 1.0-1.5 hours—for caffeic acid treatment, with exposure of 20 sec for 20 mins—for hispidin treatment, with exposure of 0.5 sec every 10 sec for 10 mins in case of luciferin treatment.
# Processing of images was performed using FiJi ImageJ distribution (version 1.53t) 20 and custom Python scripts (Python version 3.8). For luminescence quantification mean values in the region of interest after background subtraction were used. Background subtraction was performed using the following formula: signal=signalraw−(backgroundmean−3*backgroundSD).
# [5] = tested on: HEK293NT or HEK293 cell lines; test: Pathway luminescence in transfected mammalian cells in the presence of caffeic acid; assay type: cell-based; conditions: gene set expressing nnLuz_WT, mcitHispS, nnCPH, and NpgA
# Description: In different sets of experiments, HEK293NT or HEK293 cell lines were seeded in 96-well plates (ibidi, ibiTreat μ-Plate 96 Well Black). Cells were transfected with a mixture of the five plasmids that encoded variants of nnLuz, and nnH3H, along with nnHispS or mcitHispS, nnCPH, and NpgA by PolyFect Transfection Reagent (QIAGEN) according to the manufacturer's protocol, using 2 μl PolyFect per well and a mixture of plasmids containing 44 ng of plasmid expressing nnLuz, and equivalent amounts of the other four plasmids according to their size. Transfected cells were grown in DMEM (PanEco) supplemented with 10% fetal bovine serum (HyClone), 4 mM L-glutamine, 10 U/ml penicillin and 10 µg/ml streptomycin, at 37° C. and 5% CO2. Twenty-four hours after transfection, the medium was changed to 25 μM or 100 μM caffeic acid solution (0.1% DMSO in DPBS) and luminescence was imaged for 23 minutes by IVIS Spectrum CT (PerkinElmer) at 37° C. every 9 seconds with open filter, binning of 16 and exposure of 5 seconds. The number of independent replicates is included in the figure's legends.
# [6] = tested on: yeast cells (P. pastoris); test: Stability of luciferase within yeast cells after 10 min incubation at different temperatures; assay type: cell-based; conditions: then luciferin
# Description: To evaluate stability of nnLuz_WT and nnLuz_v4 within yeast cells, strains expressing nnLuz WT or nnLux_v4 were grown on plates for 24 hours, then resuspended in PBS to final OD (600 nm)=5 and 50 μl was placed in wells of a 96-well PCR plate. Different portions of the plate were incubated at different temperatures for 10 minutes using a gradient thermal cycler. The plate were then placed on ice for 5 minutes and 10 μl of 500 μM luciferin (2% DMSO, 10 mM thioglycolic acid, 0.1% DDM in DPBS) were added to each well. Then 25 μl of suspension from each well was transferred to a black 96-well plate containing 0.2 M sodium phosphate buffer with 0.5 M Na2SO4,pH=8.
# [7] = Michaelis-Menten kinetics of HiBiT-fused luciferase in yeast lysates; assay type: biochemical; conditions: fitted Michaelis-Menten model
# Description: To quantify the activity of nnLuz_v4 relative to the parental nnLuz_WT, genetic fusions were made with the HiBiT tag. The HiBiT tag is a small bioluminescent marker that may be appended onto other proteins, thereby providing a mechanism for measuring relative protein concentration. By fusing the tag onto the C-terminus of luciferase, variability in protein concentration can be normalized across independent samples.
# Yeast strains expressing fusions of nnLuz_WT and nnLuz_v4 with HiBiT were inoculated into YPD medium and cultured at 30° C. with 220 rpm for 18-20 hours. Then 4 ml of each yeast suspension were centrifuged at 5000 g (4° C.) and resuspended in 400 μL of 100 mM MOPS (pH=7.5), 4 mM EDTA, 2 mM TCEP, 1 mM PMSF. […]
# Samples were diluted 25 fold in the same buffer as used for lysis and concentrated to a volume of 200 μL using Amicon Ultra-15 Centrifugal Filter Unit 10 kDa (Millipore). […] Luminescence was measured in Tecan Spark plate-reader with exposure of 500 ms for 15 min. Activity of each variant was normalized to the expression level of HiBiT, as quantified with HiBiT lytic reagent (Promega N3030).
# To quantify luminescence, intensity values of the wells were normalized by the integral values for HiBiT luminescence kinetics. Then, the integral signal for each sample was calculated. […]
molecule,measurement,setting,value
B1,production of bioluminescence relative to parental nnLuz,[1],substantially greater
same,production of bioluminescence relative to parental nnLuz_WT,[2],substantially greater
same,enzyme stability relative to unmodified parental luciferase,[3],greater enzyme stability
B2,bioluminescence relative to cells expressing nnH3H_WT and nnLuz_WT,"[4]; co-expressed with nnLuz_WT, addition of 100 μM hispidin",greater bioluminescence
same,greater luminescence relative to nnH3H_WT,"[4]; combined with nnLuz_WT, mcitHispS and NpgA, caffeic acid",3.9 fold
same,greater luminescence compared with nnH3H_WT,[5],2.5 fold
B3,bioluminescence relative to cells expressing nnLuz_WT,[4]; addition of 50 μM luciferin,greater bioluminescence
same,greater luminescence relative to nnLuz_WT,"[4]; combined with nnH3H_v2, mcitHispS and NpgA, caffeic acid",1.9 fold
same,reduction of luminescence after incubation at 40° C.,[6]; 10 min at 40° C.,no loss of activity
same,reduction of luminescence after incubation at 45° C.,[6]; 10 min at 45° C.,3 fold
same,Km relative to nnLuz_WT,[7],similar
same,higher Vmax relative to nnLuz_WT,[7]; normalized to HiBiT,4.2 fold
